Molecular target: T1, FLAG-tagged wild-type human ERH (enhancer of rudimentary homolog) (human, UniProt P84090 1-104)
T1 construct: wild-type human ERH, expressed from pQE30/ERH-FLAG (formerly pQE30/ER-FLAG); also called ERH-FLAG; wild-type ERH
Assay: pull-down; GST-PDIP46/SKAR[L7]- or GST-Ciz1[B]-coated Glutathione-Agarose beads incubated with equal amounts of purified FLAG-tagged ERH forms; binding buffer 20 mM HEPES pH 7.4, 50 mM NaCl, 75 mM KCl, 1 mM DTT, 1 mM EDTA, 10% glycerol, 0.05% Triton X-100; western blotting with anti-FLAG antibody
Settings: both partners purified

B1: GST-tagged fragment L7 of human PDIP46/SKAR (domain or fragment)
chain: NKEEPPKELPAAEPVLSPLEGTKMTVNNLHPRVTEEDIVELFCVCGALKRARLVHPGVAEVVFVKKDDAITAYKKYNNRCLDGQPMKCNLHMNGNVITSDQPILLRLSDSPSMKKESELPRRVNSASSSNPPAEVDPDTILKALFKSSGASVTTQPTEFKIKL
notes: fragment L7 of human PDIP46/SKAR comprising residues 259-421, expressed from pGEX-4T-1/PDIP46/SKAR[L7]; also called GST-PDIP46/SKAR[L7]; PDIP46/SKAR[L7]; source: E. coli XL1 Blue MRF', batch purified on Glutathione-Agarose beads
B1: binds.
